Starred links: 1 amine or outer side, 2 acyl side, 3 side chain; linkers in the order of their positions; H or OH if unused. Non-standard residues stand in square brackets, D forms with d. Groups on a side chain read outwards from the residue. No end group written: not given here. *: point of attachment. C20 diacid = O=C(O)CCCCCCCCCCCCCCCCCCC(=O)*; C18 diacid = O=C(O)CCCCCCCCCCCCCCCCC(=O)*; αMePhe(2-F) = C[C@](N)(Cc1ccccc1F)C(=O)O; γGlu = O=C(O)[C@H](CCC(=O)[*:2])N[*:1]; 4Pal = N[C@@H](Cc1ccncc1)C(=O)O; αMeL = CC(C)C[C@](C)(N)C(=O)O; Orn = NCCC[C@H](N)C(=O)O; AEEA = NCCOCCOCC(=O)O; Aib = CC(C)(N)C(=O)O
Columns and labels:
[1] = biological target: T1, human glucose-dependent insulinotropic peptide receptor (human, UniProt P48546 22-466); assay: cell-based or functional assay
T1 sequence (looked up): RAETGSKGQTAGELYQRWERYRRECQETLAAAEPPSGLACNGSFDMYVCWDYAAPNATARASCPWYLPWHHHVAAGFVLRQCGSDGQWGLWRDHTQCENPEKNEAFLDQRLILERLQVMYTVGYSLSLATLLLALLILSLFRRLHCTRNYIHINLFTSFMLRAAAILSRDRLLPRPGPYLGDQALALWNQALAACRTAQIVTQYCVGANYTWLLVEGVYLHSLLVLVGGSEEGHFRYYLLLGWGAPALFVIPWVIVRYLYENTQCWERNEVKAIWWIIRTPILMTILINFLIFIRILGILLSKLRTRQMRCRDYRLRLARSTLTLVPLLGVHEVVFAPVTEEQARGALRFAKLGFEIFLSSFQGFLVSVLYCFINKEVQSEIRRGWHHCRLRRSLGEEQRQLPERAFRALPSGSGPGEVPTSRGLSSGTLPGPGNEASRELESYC

human glucagon receptor = human glucagon receptor (human, UniProt P47871 26-477); assay: cell-based or functional assay
Sequence of human glucagon receptor (P47871 26-477): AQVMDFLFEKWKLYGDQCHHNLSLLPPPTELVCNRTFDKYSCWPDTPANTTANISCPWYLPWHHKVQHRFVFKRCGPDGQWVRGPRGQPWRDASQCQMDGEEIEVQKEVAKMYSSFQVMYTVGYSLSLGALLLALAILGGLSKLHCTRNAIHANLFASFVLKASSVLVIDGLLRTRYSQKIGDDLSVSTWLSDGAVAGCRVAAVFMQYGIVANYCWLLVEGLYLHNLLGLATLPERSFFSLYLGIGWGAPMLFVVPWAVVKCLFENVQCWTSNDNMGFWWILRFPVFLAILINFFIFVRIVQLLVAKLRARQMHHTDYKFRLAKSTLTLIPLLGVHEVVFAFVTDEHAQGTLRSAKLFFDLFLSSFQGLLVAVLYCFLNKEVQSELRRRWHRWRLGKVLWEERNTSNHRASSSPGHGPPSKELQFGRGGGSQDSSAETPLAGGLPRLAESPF

human GLP-1 receptor = human GLP-1 receptor (human, UniProt P43220 24-463); assay: cell-based or functional assay
[2] = biological target: T2, human glucose-dependent insulinotropic polypeptide (GIP) receptor (human, UniProt P48546 22-466); assay: SPA, displacement of [125I]-GIP from hGIPR membranes, 0.1% bacitracin
T2 construct: whole, on cells; Assayed as crude membranes of stably transfected CHO cells; also called hGIPR; human GIP receptor
T2 sequence (looked up): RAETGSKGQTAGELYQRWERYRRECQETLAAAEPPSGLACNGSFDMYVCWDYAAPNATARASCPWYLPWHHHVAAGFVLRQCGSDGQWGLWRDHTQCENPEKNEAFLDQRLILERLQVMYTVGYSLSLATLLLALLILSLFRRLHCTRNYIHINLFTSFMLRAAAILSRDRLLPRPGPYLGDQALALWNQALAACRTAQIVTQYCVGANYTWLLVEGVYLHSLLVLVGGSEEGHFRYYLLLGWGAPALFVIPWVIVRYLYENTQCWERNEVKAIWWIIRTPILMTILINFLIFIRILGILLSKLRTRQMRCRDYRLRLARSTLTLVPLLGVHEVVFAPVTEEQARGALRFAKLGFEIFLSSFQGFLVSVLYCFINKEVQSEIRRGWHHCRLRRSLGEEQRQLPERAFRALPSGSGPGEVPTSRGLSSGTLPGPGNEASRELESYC
Experimental: The binding buffer contains 25 mM HEPES, pH 7.4, 2.5 mM CaCl₂, 1 mM MgCl₂, 0.1% (w/v) bacitracin, 0.003% (w/v) TWEEN®-20, and Roche Complete™ Protease Inhibitors without EDTA. […] Plates are sealed and mixed on a plate shaker (setting 6) for 1 minute and read with a PerkinElmer Trilux MicroBeta® scintillation counter after 2.5 to 12 hours of incubation/settling time at room temperature.
Data are analyzed using four-parameter (curve maximum, curve minimum, […], Hill slope) nonlinear regression routines (Genedata Screener, version 12.0.4, Genedata AG, Basal, Switzerland). […] Values for Kᵢ are reported as the geometric mean, with error expressed as the standard error of the mean (SEM) and n is equal to the number of independent replicates (determined in assays performed on different days). Geometric Means are calculated as follows: […]

B1: Example 122 (peptide)
peptide: Y[Aib]EGTFISDYSI[αMeL]LD[Orn]IHQ[Aib]EFVE[4Pal]K([AEEA-AEEA-γGlu-C20 diacid])LEAGPSSGAPPPS-NH2
modifications: N-terminus assumed
SMILES: CC[C@H](C)[C@H](NC(=O)[C@H](CCCN)NC(=O)[C@H](CC(=O)O)NC(=O)[C@H](CC(C)C)NC(=O)[C@](C)(CC(C)C)NC(=O)[C@@H](NC(=O)[C@H](CO)NC(=O)[C@H](Cc1ccc(O)cc1)NC(=O)[C@H](CC(=O)O)NC(=O)[C@H](CO)NC(=O)[C@@H](NC(=O)[C@H](Cc1ccccc1)NC(=O)[C@@H](NC(=O)CNC(=O)[C@H](CCC(=O)O)NC(=O)C(C)(C)NC(=O)[C@@H](N)Cc1ccc(O)cc1)[C@@H](C)O)[C@@H](C)CC)[C@@H](C)CC)C(=O)N[C@@H](Cc1c[nH]cn1)C(=O)N[C@@H](CCC(N)=O)C(=O)NC(C)(C)C(=O)N[C@@H](CCC(=O)O)C(=O)N[C@@H](Cc1ccccc1)C(=O)N[C@H](C(=O)N[C@@H](CCC(=O)O)C(=O)N[C@@H](Cc1ccncc1)C(=O)N[C@@H](CCCCNC(=O)COCCOCCNC(=O)COCCOCCNC(=O)CC[C@H](NC(=O)CCCCCCCCCCCCCCCCCCC(=O)O)C(=O)O)C(=O)N[C@@H](CC(C)C)C(=O)N[C@@H](CCC(=O)O)C(=O)N[C@@H](C)C(=O)NCC(=O)N1CCC[C@H]1C(=O)N[C@@H](CO)C(=O)N[C@@H](CO)C(=O)NCC(=O)N[C@@H](C)C(=O)N1CCC[C@H]1C(=O)N1CCC[C@H]1C(=O)N1CCC[C@H]1C(=O)N[C@@H](CO)C(N)=O)C(C)C
hGIPR cAMP Rel EC50 [1]: 0.01 nM
hGcgR cAMP Rel EC50 (human glucagon receptor): > 5 µM
hGLP1R cAMP Rel EC50 (human GLP-1 receptor): > 5 µM

B2: Example 13 (peptide)
peptide: Y[dA]EGTFISDYSILLDKK([AEEA-AEEA-γGlu-C20 diacid])HQQEFVNWLLAQGPSSGAPPPS-NH2
modifications: N-terminus assumed
SMILES: CC[C@H](C)[C@H](NC(=O)[C@H](CO)NC(=O)[C@H](Cc1ccc(O)cc1)NC(=O)[C@H](CC(=O)O)NC(=O)[C@H](CO)NC(=O)[C@@H](NC(=O)[C@H](Cc1ccccc1)NC(=O)[C@@H](NC(=O)CNC(=O)[C@H](CCC(=O)O)NC(=O)[C@@H](C)NC(=O)[C@@H](N)Cc1ccc(O)cc1)[C@@H](C)O)[C@@H](C)CC)C(=O)N[C@@H](CC(C)C)C(=O)N[C@@H](CC(C)C)C(=O)N[C@@H](CC(=O)O)C(=O)N[C@@H](CCCCN)C(=O)N[C@@H](CCCCNC(=O)COCCOCCNC(=O)COCCOCCNC(=O)CC[C@H](NC(=O)CCCCCCCCCCCCCCCCCCC(=O)O)C(=O)O)C(=O)N[C@@H](Cc1c[nH]cn1)C(=O)N[C@@H](CCC(N)=O)C(=O)N[C@@H](CCC(N)=O)C(=O)N[C@@H](CCC(=O)O)C(=O)N[C@@H](Cc1ccccc1)C(=O)N[C@H](C(=O)N[C@@H](CC(N)=O)C(=O)N[C@@H](Cc1c[nH]c2ccccc12)C(=O)N[C@@H](CC(C)C)C(=O)N[C@@H](CC(C)C)C(=O)N[C@@H](C)C(=O)N[C@@H](CCC(N)=O)C(=O)NCC(=O)N1CCC[C@H]1C(=O)N[C@@H](CO)C(=O)N[C@@H](CO)C(=O)NCC(=O)N[C@@H](C)C(=O)N1CCC[C@H]1C(=O)N1CCC[C@H]1C(=O)N1CCC[C@H]1C(=O)N[C@@H](CO)C(N)=O)C(C)C
Ki [2]: 0.237 nM

B3: Example 93 (peptide)
peptide: Y[dA]EGTFISDYSILLDKIAQ[Aib]DFVNWK([AEEA-AEEA-γGlu-C18 diacid])LAQGPSSGAPPPS-NH2
modifications: N-terminus assumed
SMILES: CC[C@H](C)[C@H](NC(=O)[C@H](CCCCN)NC(=O)[C@H](CC(=O)O)NC(=O)[C@H](CC(C)C)NC(=O)[C@H](CC(C)C)NC(=O)[C@@H](NC(=O)[C@H](CO)NC(=O)[C@H](Cc1ccc(O)cc1)NC(=O)[C@H](CC(=O)O)NC(=O)[C@H](CO)NC(=O)[C@@H](NC(=O)[C@H](Cc1ccccc1)NC(=O)[C@@H](NC(=O)CNC(=O)[C@H](CCC(=O)O)NC(=O)[C@@H](C)NC(=O)[C@@H](N)Cc1ccc(O)cc1)[C@@H](C)O)[C@@H](C)CC)[C@@H](C)CC)C(=O)N[C@@H](C)C(=O)N[C@@H](CCC(N)=O)C(=O)NC(C)(C)C(=O)N[C@@H](CC(=O)O)C(=O)N[C@@H](Cc1ccccc1)C(=O)N[C@H](C(=O)N[C@@H](CC(N)=O)C(=O)N[C@@H](Cc1c[nH]c2ccccc12)C(=O)N[C@@H](CCCCNC(=O)COCCOCCNC(=O)COCCOCCNC(=O)CC[C@H](NC(=O)CCCCCCCCCCCCCCCCC(=O)O)C(=O)O)C(=O)N[C@@H](CC(C)C)C(=O)N[C@@H](C)C(=O)N[C@@H](CCC(N)=O)C(=O)NCC(=O)N1CCC[C@H]1C(=O)N[C@@H](CO)C(=O)N[C@@H](CO)C(=O)NCC(=O)N[C@@H](C)C(=O)N1CCC[C@H]1C(=O)N1CCC[C@H]1C(=O)N1CCC[C@H]1C(=O)N[C@@H](CO)C(N)=O)C(C)C
Ki [2]: 0.043 nM

B4: Example 121 (peptide)
peptide: Y[Aib]EGT[αMePhe(2-F)]ISDYSILLDKIHQ[Aib]DFVE[4Pal]K([AEEA-AEEA-γGlu-C20 diacid])LEQGPSSGAPPPS-NH2
modifications: N-terminus assumed
SMILES: CC[C@H](C)[C@H](NC(=O)[C@H](CO)NC(=O)[C@H](Cc1ccc(O)cc1)NC(=O)[C@H](CC(=O)O)NC(=O)[C@H](CO)NC(=O)[C@@H](NC(=O)[C@](C)(Cc1ccccc1F)NC(=O)[C@@H](NC(=O)CNC(=O)[C@H](CCC(=O)O)NC(=O)C(C)(C)NC(=O)[C@@H](N)Cc1ccc(O)cc1)[C@@H](C)O)[C@@H](C)CC)C(=O)N[C@@H](CC(C)C)C(=O)N[C@@H](CC(C)C)C(=O)N[C@@H](CC(=O)O)C(=O)N[C@@H](CCCCN)C(=O)N[C@H](C(=O)N[C@@H](Cc1c[nH]cn1)C(=O)N[C@@H](CCC(N)=O)C(=O)NC(C)(C)C(=O)N[C@@H](CC(=O)O)C(=O)N[C@@H](Cc1ccccc1)C(=O)N[C@H](C(=O)N[C@@H](CCC(=O)O)C(=O)N[C@@H](Cc1ccncc1)C(=O)N[C@@H](CCCCNC(=O)COCCOCCNC(=O)COCCOCCNC(=O)CC[C@H](NC(=O)CCCCCCCCCCCCCCCCCCC(=O)O)C(=O)O)C(=O)N[C@@H](CC(C)C)C(=O)N[C@@H](CCC(=O)O)C(=O)N[C@@H](CCC(N)=O)C(=O)NCC(=O)N1CCC[C@H]1C(=O)N[C@@H](CO)C(=O)N[C@@H](CO)C(=O)NCC(=O)N[C@@H](C)C(=O)N1CCC[C@H]1C(=O)N1CCC[C@H]1C(=O)N1CCC[C@H]1C(=O)N[C@@H](CO)C(N)=O)C(C)C)[C@@H](C)CC
hGIPR cAMP Rel EC50 [1]: 0.0196 nM
hGcgR cAMP Rel EC50 (human glucagon receptor): > 5 µM
hGLP1R cAMP Rel EC50 (human GLP-1 receptor): > 5 µM

Reference: patent US20210032299A1 (Eli Lilly, published 2021)
